Laboratory results reported in the Human Domainome abundance scans (Beltran et al. 2025).
± gives the uncertainty stated by the source.

B1: Homeobox protein cut-like 1, residues 548 to 629; numbered along this chain, P39880 (parent)
chain: GEEMDTAEIARQVKEQLIKHNIGQRIFGHYVLGLSQGSVSEILARPKPWNKLTVRGKEPFHKMKQFLSDEQNILALRSIQGR

Variants of: B1
Assay: abundance fitness (aPCA) (normalised: wild type 0, dead -1); higher = more abundant; growth selection in yeast, the domain comes from the species named
Conditions: Homo sapiens

Point of comparison: GEEMDTAEIARQVKEQLIKHNIGQRIFGHYVLGLSQWSVSEILARPKPWNKLTVRGKEPFHKMKQFLSDEQNILALRSIQGR [G37W], abundance fitness -0.057 ± 0.029. Against it:
- GEEMDTAEIARQVKEQLIKHNIGQRIFGHYVLGLSYGSVSEILARPKPWNKLTVRGKEPFHKMKQFLSDEQNILALRSIQGR [Q36Y] — within error, -0.045 ± 0.068
- GEEMDTAEIARQVKEQLIKHNIGQRIFGHYVLGLSNGSVSEILARPKPWNKLTVRGKEPFHKMKQFLSDEQNILALRSIQGR [Q36N] — within error, -0.048 ± 0.057
- GEEMDTAEIARQVKEQLIKHNIGQRIFGHYVLGLSMGSVSEILARPKPWNKLTVRGKEPFHKMKQFLSDEQNILALRSIQGR [Q36M] — within error, -0.104 ± 0.036
- GEEMDTAEIARQVKEQLIKHNIGQRIFGHYVLGLSPGSVSEILARPKPWNKLTVRGKEPFHKMKQFLSDEQNILALRSIQGR [Q36P] — higher, 0.071 ± 0.035
- GEEMDTAEIARQVKEQLIKHNIGQRIFGHYVLGLSWGSVSEILARPKPWNKLTVRGKEPFHKMKQFLSDEQNILALRSIQGR [Q36W] — within error, -0.039 ± 0.031
- GEEMDTAEIARQVKEQLIKHNIGQRIFGHYVLGLSVGSVSEILARPKPWNKLTVRGKEPFHKMKQFLSDEQNILALRSIQGR [Q36V] — within error, -0.025 ± 0.027
- GEEMDTAEIARQVKEQLIKHNIGQRIFGHYVLGLSRGSVSEILARPKPWNKLTVRGKEPFHKMKQFLSDEQNILALRSIQGR [Q36R] — within error, -0.049 ± 0.025
- GEEMDTAEIARQVKEQLIKHNIGQRIFGHYVLGLSTGSVSEILARPKPWNKLTVRGKEPFHKMKQFLSDEQNILALRSIQGR [Q36T] — within error, -0.034 ± 0.033
- GEEMDTAEIARQVKEQLIKHNIGQRIFGHYVLGLSQQSVSEILARPKPWNKLTVRGKEPFHKMKQFLSDEQNILALRSIQGR [G37Q] — higher, 0.092 ± 0.035
- GEEMDTAEIARQVKEQLIKHNIGQRIFGHYVLGLSQPSVSEILARPKPWNKLTVRGKEPFHKMKQFLSDEQNILALRSIQGR [G37P] — within error, -0.084 ± 0.039
- GEEMDTAEIARQVKEQLIKHNIGQRIFGHYVLGLSQASVSEILARPKPWNKLTVRGKEPFHKMKQFLSDEQNILALRSIQGR [G37A] — higher, 0.037 ± 0.029
- GEEMDTAEIARQVKEQLIKHNIGQRIFGHYVLGLSQCSVSEILARPKPWNKLTVRGKEPFHKMKQFLSDEQNILALRSIQGR [G37C] — within error, -0.013 ± 0.048
- GEEMDTAEIARQVKEQLIKHNIGQRIFGHYVLGLSQHSVSEILARPKPWNKLTVRGKEPFHKMKQFLSDEQNILALRSIQGR [G37H] — within error, 0.006 ± 0.055
- GEEMDTAEIARQVKEQLIKHNIGQRIFGHYVLGLSQRSVSEILARPKPWNKLTVRGKEPFHKMKQFLSDEQNILALRSIQGR [G37R] — higher, 0.029 ± 0.023
- GEEMDTAEIARQVKEQLIKHNIGQRIFGHYVLGLSQNSVSEILARPKPWNKLTVRGKEPFHKMKQFLSDEQNILALRSIQGR [G37N] — within error, -0.016 ± 0.065
- GEEMDTAEIARQVKEQLIKHNIGQRIFGHYVLGLSQISVSEILARPKPWNKLTVRGKEPFHKMKQFLSDEQNILALRSIQGR [G37I] — lower, -0.17 ± 0.074
- GEEMDTAEIARQVKEQLIKHNIGQRIFGHYVLGLSQESVSEILARPKPWNKLTVRGKEPFHKMKQFLSDEQNILALRSIQGR [G37E] — higher, 0.136 ± 0.027
- GEEMDTAEIARQVKEQLIKHNIGQRIFGHYVLGLSQSSVSEILARPKPWNKLTVRGKEPFHKMKQFLSDEQNILALRSIQGR [G37S] — higher, 0.024 ± 0.033
- GEEMDTAEIARQVKEQLIKHNIGQRIFGHYVLGLSQMSVSEILARPKPWNKLTVRGKEPFHKMKQFLSDEQNILALRSIQGR [G37M] — within error, 0.002 ± 0.035
- GEEMDTAEIARQVKEQLIKHNIGQRIFGHYVLGLSQYSVSEILARPKPWNKLTVRGKEPFHKMKQFLSDEQNILALRSIQGR [G37Y] — within error, -0.034 ± 0.057
- GEEMDTAEIARQVKEQLIKHNIGQRIFGHYVLGLSQLSVSEILARPKPWNKLTVRGKEPFHKMKQFLSDEQNILALRSIQGR [G37L] — within error, -0.022 ± 0.028
- GEEMDTAEIARQVKEQLIKHNIGQRIFGHYVLGLSQVSVSEILARPKPWNKLTVRGKEPFHKMKQFLSDEQNILALRSIQGR [G37V] — within error, -0.051 ± 0.029
- GEEMDTAEIARQVKEQLIKHNIGQRIFGHYVLGLSQFSVSEILARPKPWNKLTVRGKEPFHKMKQFLSDEQNILALRSIQGR [G37F] — within error, -0.075 ± 0.088
- GEEMDTAEIARQVKEQLIKHNIGQRIFGHYVLGLSQTSVSEILARPKPWNKLTVRGKEPFHKMKQFLSDEQNILALRSIQGR [G37T] — higher, 0.063 ± 0.041
- GEEMDTAEIARQVKEQLIKHNIGQRIFGHYVLGLSQKSVSEILARPKPWNKLTVRGKEPFHKMKQFLSDEQNILALRSIQGR [G37K] — higher, 0.091 ± 0.034
- GEEMDTAEIARQVKEQLIKHNIGQRIFGHYVLGLSQGCVSEILARPKPWNKLTVRGKEPFHKMKQFLSDEQNILALRSIQGR [S38C] — higher, 0.025 ± 0.04
- GEEMDTAEIARQVKEQLIKHNIGQRIFGHYVLGLSQGEVSEILARPKPWNKLTVRGKEPFHKMKQFLSDEQNILALRSIQGR [S38E] — higher, 0.141 ± 0.026
- GEEMDTAEIARQVKEQLIKHNIGQRIFGHYVLGLSQGAVSEILARPKPWNKLTVRGKEPFHKMKQFLSDEQNILALRSIQGR [S38A] — higher, 0.072 ± 0.025
- GEEMDTAEIARQVKEQLIKHNIGQRIFGHYVLGLSQGHVSEILARPKPWNKLTVRGKEPFHKMKQFLSDEQNILALRSIQGR [S38H] — within error, -0.031 ± 0.051
- GEEMDTAEIARQVKEQLIKHNIGQRIFGHYVLGLSQGFVSEILARPKPWNKLTVRGKEPFHKMKQFLSDEQNILALRSIQGR [S38F] — lower, -0.181 ± 0.071
- GEEMDTAEIARQVKEQLIKHNIGQRIFGHYVLGLSQGDVSEILARPKPWNKLTVRGKEPFHKMKQFLSDEQNILALRSIQGR [S38D] — higher, 0.125 ± 0.045
- GEEMDTAEIARQVKEQLIKHNIGQRIFGHYVLGLSQGGVSEILARPKPWNKLTVRGKEPFHKMKQFLSDEQNILALRSIQGR [S38G] — within error, -0.049 ± 0.022
- GEEMDTAEIARQVKEQLIKHNIGQRIFGHYVLGLSQGIVSEILARPKPWNKLTVRGKEPFHKMKQFLSDEQNILALRSIQGR [S38I] — within error, -0.008 ± 0.067
